The source of these data is article PMC3716654, “The UmuC subunit of the E. coli DNA polymerase V shows a unique interaction with the β-clamp processivity factor” (BMC Structural Biology, 2013).

Where no end group is shown, it is not given here. Dylight649 = Dylight649 fluorophore attached through the cysteine

For the assay, the target named is T1, E. coli β-clamp processivity factor (E. coli, UniProt P0A988 1-366).
T1 construct: DNA polymerase III β subunit (β sliding clamp, dnaN), E. coli, full length, from plasmid pACYC11-dnaN; residues up to Leu-366 are named; The last residue of the hexa-histidine tag is modelled in both subunits; also called sliding clamp; not shown: His6, N-terminal, kept
In words: crystal structure; β-clamp/Dylight649-UmuC peptide complex purified by SEC, 15 mg/ml; crystallised in 200 mM calcium acetate, 200 mM MES pH 6.5, 14% PEG 6000, sitting drop, 12°C; 2.5 Å. Conditions: both partners purified. (Size exclusion chromatography separates by hydrodynamic size, large species first.)

T1 sequence (P0A988 whole entry): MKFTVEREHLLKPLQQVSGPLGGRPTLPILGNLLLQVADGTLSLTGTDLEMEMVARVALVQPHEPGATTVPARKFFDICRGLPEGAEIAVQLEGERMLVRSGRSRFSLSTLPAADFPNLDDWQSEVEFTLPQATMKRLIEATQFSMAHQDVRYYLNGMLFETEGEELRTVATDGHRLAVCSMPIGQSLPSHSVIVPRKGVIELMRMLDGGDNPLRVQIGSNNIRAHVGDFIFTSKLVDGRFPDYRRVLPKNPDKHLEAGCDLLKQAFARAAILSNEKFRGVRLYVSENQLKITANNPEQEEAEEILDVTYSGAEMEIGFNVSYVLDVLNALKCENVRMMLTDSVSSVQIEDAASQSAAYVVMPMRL

B1: Dylight649-UmuC synthetic peptide (Dylight649-C-QGVAQLNLFDD) (peptide)
peptide: C(Dylight649)QGVAQLNLFDD
notes: cysteine added to permit linkage of the chromophore; not a UmuC residue; 12-mer including the added N-terminal cysteine; Only 356-361 (chain D) and 357-361 (chain C) are ordered in the structure; also called Dylight649-Pol V synthetic peptide; UmuC peptide; source: synthetic peptide (Cambridge Peptides)
With B1, the binding result is recorded as “binds”.
